Publication PMC10101019

Molecular target: DENV-2 particles (dengue virus 2)

B1: Trx-tagged mucin protein of Aedes aegypti (natural protein)
chain: MQTFACICLISILISESFGKFDTPADPVFSDDVTDYDSPSGIDYYDVKDYPMIPGELNVYRKTKPGGLLPSSDVDMKGKMLTSKEVTTKPRNIPTRQHRVQNRIRKPARFSTVVPLPTAALTAPQCILQRTTPKPLWRREGGRVIIDGSDPNIDIFKVMRESRRRPTEAPKPTGNLPMRDIVGNEIKPETASNQFLVLGSVLRCRETKQEVHEHRTRNSRVEISDPTVTGLTVEYPPNIIRLTHRFESTSTGGKAFVFRTMNGKQGILKLKWYSCPTRNSG
DENV-2 titer by focus-forming assay 6 days after microinjection of DENV-2 particles with anti-mucin antibodies into Ae. aegypti, against DENV-2 with PBS or pre-immune serum (% reduction in DENV-2 titer): 12.5
